{"source": "paper PMC3268021", "origin": "cited, not measured here", "key": {"TXA2R (ligand-free)": {"target": "TXA2R (ligand-free) (UniProt P21731)"}, "[1]": {"target": "TXA2R (agonist-activated) (UniProt P21731)"}, "phospholipase C [2]": {"target": "phospholipase C (UniProt P19174)", "sequence (P19174 2-1290)": "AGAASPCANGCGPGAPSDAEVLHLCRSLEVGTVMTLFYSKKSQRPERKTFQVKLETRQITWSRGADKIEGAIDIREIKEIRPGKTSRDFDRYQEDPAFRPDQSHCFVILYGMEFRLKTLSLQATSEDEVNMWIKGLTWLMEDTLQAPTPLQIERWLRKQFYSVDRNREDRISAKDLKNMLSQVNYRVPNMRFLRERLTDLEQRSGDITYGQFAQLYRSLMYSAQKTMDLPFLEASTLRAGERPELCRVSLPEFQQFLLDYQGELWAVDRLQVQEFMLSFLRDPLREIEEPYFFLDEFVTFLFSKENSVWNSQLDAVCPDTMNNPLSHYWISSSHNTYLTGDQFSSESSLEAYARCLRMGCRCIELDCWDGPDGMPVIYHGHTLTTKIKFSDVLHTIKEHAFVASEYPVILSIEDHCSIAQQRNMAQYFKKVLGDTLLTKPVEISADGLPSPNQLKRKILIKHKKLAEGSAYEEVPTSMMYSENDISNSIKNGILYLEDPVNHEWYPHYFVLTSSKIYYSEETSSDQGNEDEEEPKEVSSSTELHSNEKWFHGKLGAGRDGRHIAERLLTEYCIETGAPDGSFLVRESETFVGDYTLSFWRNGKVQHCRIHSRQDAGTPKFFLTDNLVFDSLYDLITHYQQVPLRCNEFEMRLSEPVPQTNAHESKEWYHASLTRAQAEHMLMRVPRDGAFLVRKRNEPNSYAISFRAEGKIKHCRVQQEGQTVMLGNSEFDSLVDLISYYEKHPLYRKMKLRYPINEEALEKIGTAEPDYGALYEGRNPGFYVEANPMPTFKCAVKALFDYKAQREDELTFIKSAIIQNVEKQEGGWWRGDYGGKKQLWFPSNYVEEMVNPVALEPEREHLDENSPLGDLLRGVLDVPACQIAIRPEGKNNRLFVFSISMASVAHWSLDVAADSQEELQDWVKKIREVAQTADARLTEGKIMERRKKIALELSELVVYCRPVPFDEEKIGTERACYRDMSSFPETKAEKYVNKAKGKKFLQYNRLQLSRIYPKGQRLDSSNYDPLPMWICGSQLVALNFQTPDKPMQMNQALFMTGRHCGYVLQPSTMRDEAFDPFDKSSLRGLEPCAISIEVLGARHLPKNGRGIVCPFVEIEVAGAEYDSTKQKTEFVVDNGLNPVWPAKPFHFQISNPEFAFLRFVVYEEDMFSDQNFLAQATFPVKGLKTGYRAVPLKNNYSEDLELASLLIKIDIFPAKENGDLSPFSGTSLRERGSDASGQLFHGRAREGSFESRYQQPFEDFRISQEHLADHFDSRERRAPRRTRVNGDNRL"}, "phospholipase C [3]": {"target": "phospholipase C (UniProt P19174)", "remark": "listed apart in the source"}, "Calmodulin": {"target": "Calmodulin (UniProt P0DP23)"}}, "note": "pKd, pKi: −log10 of the molar value. Like-named read-outs stand apart in the source and are kept apart here."}
{"substance": "Gαq C-terminal peptide C-terminal 15-mer peptide (from UniProt P50148)", "values": [{"measurement": "pKd", "setting": "TXA2R (ligand-free)", "value": 4.77}, {"measurement": "pKd", "setting": "[1]", "value": 3.62}]}
{"substance": "PCI-peptide 724-736 724-736 (from UniProt P19174)", "values": [{"measurement": "pKi", "setting": "phospholipase C [2]", "value": 5.46}, {"measurement": "pKi", "setting": "phospholipase C [3]", "value": 3.92}]}
{"substance": "pAC28 peptide of AC1 495-522 (from UniProt P19754)", "values": [{"measurement": "pKd", "setting": "Calmodulin", "value": 8.70}]}
